Columns and labels:
[1] = molecular target: T1, Recombinant human EGFR-ED (human, UniProt P00533 25-645); assay: SPR (ProteOn XPR36); v1323 captured on immobilized anti-human IgG, recombinant human EGFR-ED injected as analyte; global 1:1 Langmuir fit
T1 construct: extracellular domain; also called extracellular domain (ED) of EGFR
Procedure: (§1) The ability of v1323 comprising an EGFR binding domain to bind to the extracellular domain (ED) of EGFR was tested by Surface Plasmon Resonance (SPR) using a ProteOn XPR36 system from BIO-RAD.
(§2) Approximately 3000 RU of anti-human IgG 25 ug/ml was immobilized on a GLC chip using standard amine coupling. Exemplary SDACs were captured on the anti-human IgG immobilized chip to capture level of approximately 700 RU. Recombinant human EGFR-ED was diluted in running buffer and injected at a flow rate of 50 μl/min for 2 minutes, followed by dissociation for another 4 minutes. Sensograms were fit globally to a 1:1 Langmuir binding model. All experiments were conducted at room temperature.

[2] = molecular target: T1, Recombinant human EGFR-ED; assay: SPR, v1323 captured by anti-human IgG, EGFR-ED injected, 1:1 Langmuir fit
Procedure: as §1, §2

B1: v1323, monovalent anti-EGFR antibody (EG2) (Fc fusion)
VHH: QVKLEESGGGLVQAGDSLRVSCAASGRDFSDYVMGWFRQAPGKEREFVAAISRNGLTTRYADSVKGRFTISRDNDKNMVYLQMNSLKPEDTAVYYCAVNSAGTYVSPRSREYDYWGQGTQVTVSS
notes: EU numbering; no light chain, no CH1; also called exemplary heteromultimer; not shown: hinge/linker between the VhH and the Fc (not described), and with it the heterodimer Fc carrier, left out of the chains
With B1 the Kd [1] was 4.05 nM, the koff [1] was 0.004 s⁻¹ and the kon [1] was 989000 M⁻¹ s⁻¹. It also gave a Kd [2] of 3 to 4.5 nM.

— US20160257763A1 (Zymeworks, published 2016)
